Experimental data from patent publication US20060241031A1 (priority 2003, published 2006).
Where two headings read alike, the source gives them in different places.

Assays:
LL-37 [1] = molecular target: T1, LL-37 (Homo sapiens, UniProt P49913); assay: Indirect ELISA, SIC homologues coated, binding of LL-37; details: purified SIC homologues on microtiter plates; M1 protein negative control
T1 construct: LL-37, […]; (Mw 4492) was synthesized by Innovagen AB; purchased Innovagen AB, Lund, Sweden; host or cells: chemical synthesis
T1 sequence (P49913 134-170 limits assumed): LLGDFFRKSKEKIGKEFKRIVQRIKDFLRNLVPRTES

α-defensin = molecular target: T2, α-defensin (Homo sapiens, UniProt P59665); assay: Antimicrobial assay, inhibition of bactericidal effect of α-defensin; format: cell-based
T2 construct: α-defensin (HNP-1), […]; (Mw 3442) was purchased from Sigma; purchased Sigma
T2 sequence (P59665 65-94 limits assumed): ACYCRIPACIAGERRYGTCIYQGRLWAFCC
Method: (§1) Antimicrobial assay—AP1 bacteria were grown to mid-log phase in TH broth, washed and diluted in 10 mM Tris-HCl, pH 7.5, containing 5 mM glucose. 50 μl bacteria (2×10^6 colony forming units (cfu)/ml) were incubated together with α-defensin or LL-37 at various concentrations for 2 h at 37° C. In subsequent experiments, bacteria were incubated with α-defensin and LL-37 at a concentration of 448 nM together with different concentrations of protein SIC or M1 protein and the reactions were carried out for 2 h (α-defensin) or 1 h (LL-37). To quantitate the bactericidal activity serial dilutions of the incubation mixtures were plated on TH agar, incubated overnight at 37° C., and the number of cfus were determined.

LL-37 [2] = molecular target: T1, LL-37; assay: Antimicrobial assay, inhibition of bactericidal effect of LL-37; format: cell-based
Method: as §1

M1 protein = assay: Indirect ELISA, binding of antibacterial peptides to coated M1 protein (control); set-up: species or system S. pyogenes; details: M1 protein applied to plastic wells as control
protein SIC [3] = details: peptides on Immobilon filters probed with 125I-labelled SIC from M1 strain AP1
Method: Slot-binding and SDS-polyacrylamide gel electrophoresis—Peptides were applied to polyvinylidene difluoride (PVDF) membranes (Immobilon, Millipore) using a Milliblot-D system (Millipore). Membranes were blocked in TBS (0.05 M Tris-HCl, pH 7.5, 0.15 M NaCl) containing 3% bovine serum albumin (SA), incubated with ^125I-labelled protein SIC for 3 h, and washed with TBS containing 0.05% Tween-20. Autoradiography was carried out using Kodak x-Omat AR films and regular intesifying screens.

protein SIC [4] = details: SIC applied to plastic wells, peptide added, detected with antibodies
AP1 bacteria [5] = tested on: AP1 bacteria
Method: as §1

AP1 bacteria [6] = tested on: AP1 bacteria; remark: listed apart in the source
Method: Bacterial growth assay—AP1 bacteria were grown to stationary phase in TH broth. 200 μl of TH was inoculated with 5 μl of the bacterial suspension in 96-well plates (Falcon) at 37° C. At early logarithmic phase various amounts of LL-37 was added and growth was followed by measuring the absorbance at 490 nm (using a BioRad 550 microplate reader). The amount of protein SIC in the growth medium was estimated by ELISA (see below).

LL-37 (human) = assay: cell-based or functional assay

SIC: streptococcal inhibitor of complement, purified from S. pyogenes strain AP1 of serotype M1
binding of LL-37 (ELISA, FIG. 3B) (LL-37 [1]): showed binding of LL-37 clearly above M1 protein | potency in blocking α-defensin and LL-37 relative to the M12 and M55 homologues (α-defensin; from inhibition curves FIG. 3C, both peptides at 448 nM): 5-10 times | blocking of antibacterial activity of α-defensin (α-defensin; α-defensin 0.448 μM, AP1 bacteria, 2 h, M1 protein at a maximum of 0.72 μM): blocks | blocking of antibacterial activity of LL-37 (LL-37 [2]; LL-37 0.448 μM, AP1 bacteria, M1 protein at a maximum of 0.72 μM): blocks | efficiency in blocking LL-37 relative to α-defensin (LL-37 [2]; from inhibition curves, FIG. 2 right panel): about ten

human antibacterial peptide LLGDFFRKSKEKIGKEFKRIVQRIKDFLRNLVPRTES (Mw 4492), synthesized by Innovagen AB [LL-37]
interaction with M1 protein (ELISA, FIG. 1B) (M1 protein): at background level | interaction with 125I-labelled SIC (slot-binding, FIG. 1A) (protein SIC [3]): interacts | affinity for SIC (ELISA, FIG. 1B) (protein SIC [4]): showed affinity | concentration required for 100% killing (AP1 bacteria [5]; AP1 washed and resuspended in buffer, no SIC present, 2 h 37° C.): approximately 0.4 μM | EC50 (AP1 bacteria [5]; read-out: concentration of LL-37 required to kill 50% of the bacteria, bacteria washed to remove SIC before addition of LL-37): 0.2 µM | fold increase of concentration to kill 50% with secreted SIC versus washed bacteria (AP1 bacteria [6]; 11.1 μM compared to 0.2 μM): more than 50 times | EC50 (AP1 bacteria [6]; read-out: concentration of LL-37 required to kill 50% of the bacteria, AP1 at early logarithmic growth phase, SIC 4-5 μg/ml growth medium): 11.1 µM

protein SIC purified from S. pyogenes strain AP1 (serotype M1)
efficiency in blocking LL-37 against blocking α-defensin, from inhibition curves (LL-37 (human)): 10 times | fold rise of the LL-37 concentration required to kill 50% of the bacteria, with secreted SIC against washed bacteria (LL-37 (human)): 50 times
